Measured values: publication PMC6803640, “Oligomeric state, hydrodynamic properties and target recognition of human Calcium and Integrin Binding protein 2 (CIB2)” (Scientific Reports, 2019)
Several values for one entry are separate records, joined by “and”; a condition that tells them apart may be missing. Equal values may be shown once. Where a SMILES comes first, the peptide text is derived from it.

Legend:
CIB2 = settings: cited from earlier work
Excerpt: In a recent study[8] we investigated the capability of CIB2 to bind Ca^2+ and Mg^2+ thereby switching to a functionally distinct structural state. By integrating several biochemical and biophysical techniques we could establish that in the absence of any cation CIB2 forms a molten globule state that essentially lacks tertiary structure. […] This is quite unusual for Ca^2+-sensor pro ... || The second approach (direct peptide immobilization) led to very low signals and unreproducible results and was not pursued any further. […] In spite of such differences, which might ... || Interaction with α7B occurs in the region proximal to the membrane and not close to the C-terminus of the cytosolic domain of the integrin. The recognition between CIB2 and the α7B target is kinetically favored in the presence of physiological Mg^2+ and in the absence of Ca^2+ and it might induce binding of another CIB2 molecule. […] However, CIB2 per se binds a single peptide as a monomer, and the complex could then induce CIB2 dimerization, ...

human CIB2 = molecular target: T1, human CIB2 (Homo sapiens, UniProt O75838); test: Cross-linking (DSBU)/MALDI-TOF-MS of CIB2 with α7B peptides; assay type: binding
T1 construct: made in house
T1 sequence (O75838 1-187): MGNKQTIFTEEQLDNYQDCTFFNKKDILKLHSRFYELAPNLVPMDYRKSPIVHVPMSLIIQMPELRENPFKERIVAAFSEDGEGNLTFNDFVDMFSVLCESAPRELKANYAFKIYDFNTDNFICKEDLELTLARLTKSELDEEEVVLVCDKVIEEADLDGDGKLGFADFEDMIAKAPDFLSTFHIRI
Method: CIB2 samples were cross-linked with DSBU in the presence of peptide α7B_M or α7B_Scrb as described in ref.[14] Briefly, 10 µM CIB2 was diluted in 20 mM HEPES, pH 7.5, 1 mM DTT, 1 mM Mg^2+ and 2 mM Ca^2+ and incubated with increasing peptide concentrations (5 µM, 10 µM, and 20 µM) for 10 min at room temperature. Then, 50-fold molar excess of DSBU was added and the reactions were conducted for 20 min at room temperature. As control, CIB2 was treated with DSBU without peptide. Reactions were blocked by adding ammonium bicarbonate to a final concentration of 20 mM.
Cross-linked CIB2 samples were desalted via ZipTip C4 tips (Millipore) before MALDI-TOF-MS analysis (Ultraflex III MALDI-TOF/TOF mass spectrometer, Bruker Daltonik, Bremen) was conducted using sinapinic acid as matrix. For further details see Supplementary Methods. Baseline subtraction and spectra smoothing were performed. […]
Cross-linking reactions and Mass Spectrometry
Cross-linking reactions were performed with 10 µM CIB2 (in 20 mM HEPES pH 7.5, 150 mM KCl, 1 mM DTT, 1 mM Mg2+, 2 mM Ca2+) and increasing concentrations of peptides α7B_M and α7B_Scrb, ranging from 0.5:1 to 2:1 peptide:protein ratios. After incubating the samples for 10 minutes at room temperature, DSBU (freshly prepared solution, dissolved in neat DMSO) was added to the mixture at 50-fold molar excess compared to CIB2 concentration. As the final volume of the reaction mixture was 50 µL, 1 µL of 25 mM DSBU was added to each sample. After 20 minutes, the cross-linking reactions were quenched by adding ammonium bicarbonate to a final concentration of 20 mM. Samples were incubated for 10 minutes before SDS-PAGE analysis was performed (data not shown). Samples for MALDI-TOF-MS measurements were desalted by ZipTip C4 (Millipore) and desalted protein was eluted with 70% (v/v) acetonitrile / 1% (v/v) formic acid. Each sample was mixed with a saturated solution of sinapinic acid (in 50% (v/v) methanol / 0.1% (v/v) TFA) at 1:1 ratio and spotted onto the MALDI target. […]

[1] = Analytical size exclusion chromatography; assay type: physicochemical
Method: The molecular weight (MW) of the proteins was determined before and after DSBU-modification as previously described[7] in the same buffer (20 mM HEPES, pH 7.5, 1 mM DTT, 1 mM Mg^2+ and 2 mM Ca^2+). […] Standard calibration curve for MW estimation was the same used in our previous study.

Dynamic light scattering = assay type: physicochemical; settings: 37 °C, fractions eluted from SEC (CIB2 A2 band), mean ± SEM; n = 15 (CIB2), 18 (Rec), 30 (CaM); 1.8 µM CIB2, 11 µM Rec, 7.4 µM CaM
Method: DLS measurements were performed using Zetasizer Nano-S (Malvern Instruments) at 37 °C by setting the same parameters for hydrodynamic diameter estimation as in ref.[26]. The estimation was based on 15–30 measurements, each consisting of at least 13 repetitions; data in Table 1 are reported as mean ± standard error of mean (SEM). DLS samples for each protein are the same collected in the Analytical Size Exclusion Chromatography.
His-tagged proteins, and then blocked via amine coupling as explained above. Preparation of the […]
approximately 2250 RU of CIB2 immobilized. In binding experiments, peptide concentration was varied in the 230 nM- 30 μM range for both α7B_M, and α7B_C, and experiments were repeated 4 times, both with the HBS buffer described above (containing 1 mM MgCl2) and with further addition of 2 mM CaCl2. Flow rate was set to 20 μl min−1 in all binding experiments, and the dissociation […]
Figure S1: DLS measurements of the SEC collected peaks. CIB2 band A2 (A), Rec (B) and CaM (C). Each data set consisted of 15-30 measurements (grey lines), with 13-15 repetitions each. Colored lines are referred to the average distribution. Temperature was set to 37°C and samples were equilibrated for 2 min before measurements.
Figure S2: Time-resolved proteolysis experiments. […]

[2] = Native ESI-MS oligomeric state of CIB2; assay type: physicochemical; settings: 14 µM CIB2 in 200 mM ammonium acetate, pH 6.8; collision energy 60 V
Method: For native ESI-MS analyses (High-Mass Q-TOF II mass spectrometer, Waters/MSVision), CIB2 was prepared in 200 mM ammonium acetate, pH 6.8.

Molecule: CSCC[C@H](NC(=O)[C@H](CCCCN)NC(=O)[C@H](Cc1c[nH]c2ccccc12)NC(=O)[C@H](CC(C)C)NC(=O)[C@H](CC(C)C)NC(=O)[C@H](CC(C)C)NC(C)=O)C(=O)NCC(=O)N[C@@H](Cc1ccccc1)C(=O)N[C@@H](Cc1ccccc1)C(=O)N[C@@H](CCCCN)C(=O)N[C@@H](CCCNC(=N)N)C(=O)N[C@@H](C)C(=O)N[C@@H](CCCCN)C(=O)N[C@@H](Cc1c[nH]cn1)C(=O)N1CCC[C@H]1C(=O)N[C@@H](CCC(=O)O)C(N)=O [α7B_M] (Ac-LLLWKMGFFKRAKHPE-NH2)
- fluorescence titration of CIB2 (CIB2; peptide intrinsic fluorescence): fluorescence variation upon titration with α7B_M was much higher
- 1:2 CIB2/peptide complex (human CIB2; 10 µM CIB2, 5, 10, 20 µM peptide, 50-fold DSBU, 1 mM Mg^2+, 2 mM Ca^2+): A weak signal
- CIB2/peptide complex formation, 1:1 (human CIB2; 10 µM CIB2, 5, 10, 20 µM peptide, 50-fold DSBU, 20 mM HEPES pH 7.5, 1 mM Mg^2+, 2 mM Ca^2+, room temperature): a 1:1 CIB2/peptide complex appears in the mass spectra
- 2:1 CIB2 and peptide complex (human CIB2; cross-linking experiments with DSBU, 1 mM Mg^2+, 2 mM Ca^2+): never observed

B1: CIB2: Recombinant human CIB2, Ca^2+ and Mg^2+-binding protein (protein)
chain: T1 sequence (O75838 1-187)
modifications: left off: His tag, end not stated, cleaved
- apparent MW (MW^SEC) ([1]; absence of cross-linker, 1 mM Mg^2+, 2 mM Ca^2+): 35.9 kDa
- MW^SEC ([1]; analytical SEC, 20 mM HEPES pH 7.4, 150 mM KCl, 1 mM DTT, 1 mM Mg^2+, 2 mM Ca^2+, CIB2 ∼70 µM (A2 band), Rec ∼80 µM, CaM ∼110 µM): 37.8 kDa
- MW^SEC, A1 shoulder ([1]; lower intensity shoulder A1 at lower elution time, predicted): 81.3 kDa
- apparent MW (MW^SEC) ([1]; presence of DSBU cross-linker, 1 mM Mg^2+, 2 mM Ca^2+): 36.7 kDa
- CIB2:target peptide stoichiometry (CIB2; fluorescence): 2:1 stoichiometry
- DLS Ø hydrodynamic diameter (Dynamic light scattering): 5.4 ± 0.2 nm and 5.4 ± 0.2 [15] nm
- oligomeric state, native MS [2]: no signals of CIB2 dimers, nor higher order oligomers were detected
- oligomeric state by MS and XL-MS (human CIB2; all tested conditions, MS and XL-MS): remained monomeric in all tested conditions
